The values below come from patent US20230107644A1 (UNIVERSITY OF ROCHESTER, published 2023).

Assay in all cases: cell-based or functional assay
The target of assay [1] is HA (H3) of influenza virus A/Wyoming/3/2003 (influenza A virus A/Wyoming/3/2003 …).
Assay [2] concerns the target NA (N2) of influenza virus A/Wyoming/3/2003 (influenza A virus A/Wyoming/3/2003 …).
In assay [3] the target is NA (N2) of influenza virus A/Switzerland/9715283/2013 (influenza A virus …).
The target of assay [4] is NA (N2) of influenza virus A/Victoria/210/2009 (influenza A virus A/Victoria/210/2009 …).

B1: 1092C4 hmAb (antibody, V domains shown)
VH: EVQLVQSGAEVKKPGASVKVSCKASGYSFTRYGISWVRQAPGQGLEWMGWISAYTGNTDYAQKFQGRITMTTDTSTSTAYMELRSLRSDDTAVYYCARDLPQGVVILGSYYYGMDVWGQGNTVTVSS
VL: EIVLTQSPGTLSLSPGERATLSCRASQSVTSRYLAWYQQKLGQAPRLLIYGASSRATGIPDRFSGSGSGTDFTLTISSLEPEDLAVYYCQQSGSPRTFGQGTKVEIK
Regarding B1, the “NT50” value in assay [1] is 1.6 µg/mL.

B2: 1092E4 hmAb (antibody, V domains shown)
VH: QVQLVQSGAEVKKPGASVKVSCKASGYSFTRYGISWVRQAPGQGLEWMGWISAYTGNTDYAQKFQGRITMTTDTSTSTVYMELRSLRSDDTAVYYCARDHPQGVVILGSYYYGMDVWGQGNTVTVSS
VL: EIVLTQSPGTLSLSPGERATLSCRASQSVTSRYLAWYQQKLGQAPRLLIYGASSRATGIPDRFSGSGSGTDFTLTISSLEPEDFAVYYCQQSGSPRTFGQGTKVEIK
Regarding B2, in assay [1], the “NT50” value was found to be 3.13 µg/mL.

B3: 1122A11 hmAb (antibody, V domains shown)
VH: QVQLVQSGAEVSKPGASVKVSCKASGYSFTSQSLGWVRQAPGQGLEWMGIINPSGGITNYAHKFQGRVTMTRDTSTSTVYMELSSLRSEDTALYYCVRDLSHYNEVGHDRAYYYGMDIWGQGTTVTVSS
VL: SYELIQPPSVSVSPGQTASITCSGDKLGKKYTCWYQQKPGQSPVLVIYQDNKRPSGIPERFSGSNSGNTATLTISGTQAMDEADYYCQAWDSSAVVFGGGTKLTVL
As for B3, the “NT50” value in assay [2] amounted to 6.25 µg/mL; in assay [3], 25 µg/mL; in assay [4], 25 µg/mL.

B4: 1086G8 hmAb (antibody, V domains shown)
VH: EVQLLESGGGLVQPGGSLRLSCTASGFTFASDAMNWVRQAPGKGLEWVSAISGNGGITYFADSVKGRFTISRDNSKDTLYLQMDSLRAEDTAVYYCAKGVAPSHFNLLTGYYAGHYYFDFWGQGTLVTVSS
VL: EIVMTQSPATLSVSPGERATLSCRASQSVRHNLAWYQHKPGQPPRLLIYGASTRAASVPARFSGSGSGTDFTLTISSLQSEDFAVYYCQQYNHWPPYTFGQGTKLEIK
As for B4, the “NT50” value in assay [1] worked out at 0.78 µg/mL.
